From US20160038588A1, “Myostatin Antagonism in Human Subjects” (AMGEN INC., priority 2013, published 2016)
pIC50, pKd: −log10 of the molar value. Where no end group is shown, it is not given here.

Columns and labels:
myostatin [1] = biological target: T1, myostatin (Homo sapiens, UniProt O14793); experiment: C2C12 pMARE-luc cell based myostatin activity assay
T1 construct: To produce mature myostatin, the pooled promyostatin was enzymatically cleaved between the propeptide and mature myostatin C terminal; made in house
T1 sequence (O14793 267-375): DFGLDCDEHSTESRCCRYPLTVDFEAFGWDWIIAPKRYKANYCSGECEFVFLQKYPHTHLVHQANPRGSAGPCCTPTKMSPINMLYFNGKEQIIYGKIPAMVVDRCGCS
From the text: The antagonists including the binding agents described herein can be tested for their ability to bind myostatin and inhibit or block myostatin activity. Any number of assays or animal tests may be used to determine the ability of the agent to inhibit or block myostatin activity. Several assays used for characterizing the peptides and peptibodies of the present invention are described in the Examples below. One assay is the C2C12 pMARE-luc assay which makes use of a myostatin-responsive cell line (C2C12 myoblasts) transfected with a luciferase reporter vector containing myostatin/activin response elements (MARE). Exemplary peptibodies are assayed by pre-incubating a series of peptibody dilutions with myostatin, and then exposing the cells to the incubation mixture. The resulting luciferase activity is determined, and a titration curve is generated from the series of peptibody dilutions. The IC50 (the concentration of peptibody to achieve 50% inhibition of myostatin activity as measured by luciferase activity) was then determined. A second assay described below is a BIAcore® assay to determine the kinetic parameters ka (association rate constant), kd (dissociation rate constant), and KD (dissociation equilibrium constant) for the myostatin binding agents and other antagonists such as antibodies capable of binding myostatin and its receptor. Lower dissociation equilibrium constants (KD, expressed in nM) indicated a greater affinity of the peptibody for myostatin. […] These assays are described in Example 3.
C2C12 Cell Based Myostatin Activity Assay
A myostatin-responsive reporter cell line was generated by transfection of C2C12 myoblast cells (ATCC No: CRL-1772) with a pMARE-luc construct. The pMARE-luc construct was made by cloning twelve repeats of the CAGA sequence, representing the myostatin/activin response elements (Dennler et al. EMBO 17: 3091-3100 (1998)) into a pLuc-MCS reporter vector (Stratagene cat #219087) upstream of the TATA box. The myoblast C2C12 cells naturally express myostatin/activin receptors on its cell surface. When myostatin binds the cell receptors, the Smad pathway is activated, and phosphorylated Smad binds to the response element (Macias-Silva et al. Cell 87:1215 (1996)), resulting in the expression of the luciferase gene. Luciferase activity is then measured using a commercial luciferase reporter assay kit (cat # E4550, Promega, Madison, Wis.) according to manufacturer's protocol. A stable line of C2C12 cells that had been transfected with pMARE-luc (C2C12/pMARE clone #44) was used to measure myostatin activity according to the following procedure.
Equal numbers of the reporter cells (C2C12/pMARE clone #44) were plated into 96 well cultures. A first round screening using two dilutions of peptibodies was performed with the myostatin concentration fixed at 4 nM. Recombinant mature myostatin was preincubated for 2 hours at room temperature with peptibodies at 40 nM and 400 nM respectively. The reporter cell culture was treated with the myostatin with or without peptibodies for six hours. Myostatin activity was measured by determining the luciferase activity in the treated cultures. This assay was used to initially identify peptibody hits that inhibited the myostatin signaling activity in the reporter assay. Subsequently, a nine point titration curve was generated with the myostatin concentration fixed at 4 nM. The myostatin was preincubated with each of the following nine concentrations of peptibodies: […], 0.4 nM, 4 nM, 20 nM, 40 nM, 200 nM, 400 nM, 2 uM and 4 uM for two hours before adding the mixture to the reporter cell culture. The IC50 values were for a number of exemplary peptibodies are provided in Tables III and for affinity matured peptibodies, in Table VIII.

myostatin [2] = biological target: T1, myostatin; experiment: BIAcore affinity analysis on immobilized myostatin; format: binding; settings: Biacore assay
From the text: The antagonists including the binding agents described herein can be tested for their ability to bind myostatin and inhibit or block myostatin activity. Any number of assays or animal tests may be used to determine the ability of the agent to inhibit or block myostatin activity. Several assays used for characterizing the peptides and peptibodies of the present invention are described in the Examples below. One assay is the C2C12 pMARE-luc assay which makes use of a myostatin-responsive cell line (C2C12 myoblasts) transfected with a luciferase reporter vector containing myostatin/activin response elements (MARE). Exemplary peptibodies are assayed by pre-incubating a series of peptibody dilutions with myostatin, and then exposing the cells to the incubation mixture. The resulting luciferase activity is determined, and a titration curve is generated from the series of peptibody dilutions. The IC50 (the concentration of peptibody to achieve 50% inhibition of myostatin activity as measured by luciferase activity) was then determined. […]
Direct binding assays were used to screen and rank the peptibodies in order of their ability to bind to immobilized myostatin. […] Peptibody binding kinetic parameters including ka (association rate constant), kd (dissociation rate constant) and KD (dissociation equilibrium constant) were determined using the BIA evaluation 3.1 computer program (Biacore, Inc.). […]

[3] = biological target: T2, myostatin binding to ActRIIB/Fc (Homo sapiens, UniProt O14793); experiment: Blocking assay on ActRIIB/Fc surface (BIAcore)
T2 construct: To produce mature myostatin, the pooled promyostatin was enzymatically cleaved between the propeptide and mature myostatin C terminal; host or cells: myostatin: E. coli K-12 strain 2596; ActRIIB/Fc purchased
T2 sequence (O14793 267-375): T1 sequence (O14793 267-375)
Procedure: Blocking Assay on ActRIIB/Fc Surface
Blocking assays were carried out using immobilized ActRIIB/Fc (R&D Systems, Minneapolis, Minn.) and myostatin in the presence and absence of peptibodies with the BIAcore® assay system. […] Baseline myostatin-ActRIIB/Fc binding was first determined in the absence of any peptibody.
For early screening studies, peptibodies were diluted to 4 nM, 40 nM, and 400 nM in sample buffer and incubated with 4 nM myostatin (also diluted in sample buffer). The peptibody:ligand mixtures were allowed to reach equilibrium at room temperature (at least 5 hours) and then were injected over the immobilized ActRIIB/Fc surface for 20 to 30 minutes at a flow rate of 10 μl/min. […] Selected peptibodies were further characterized using the blocking assay of a full concentration series in order to derive IC50 values (for neutralizing peptibodies) or EC50 (for non-neutralizing peptibodies). The peptibody samples were serially diluted from 200 nM to […] in sample buffer and incubated with […] myostatin at room temperature to reach equilibrium (minimum of five hours) before injected over the immobilized ActRIIB/Fc surface for 20 to 30 minutes at a flow rate of 10 μl/min. Following the sample injection, bound ligand was allowed to dissociate from the receptor for 3 minutes.

myostatin [4] = biological target: T1, myostatin; experiment: Epitope binning for peptibodies (BIAcore); format: binding
Procedure: Epitope Binning for Peptibodies
A purified peptibody was immobilized on a BIAcore chip to capture myostatin before injection of a second peptibody, and the amount of secondary peptibody bound to the captured myostatin was determined Only peptibodies with distinct epitopes will bind to the captured myostatin, thus enabling the binning of peptibodies with similar or distinct epitope binding properties.

Substance: TN8-19: peptibody; peptide QGHCTRWPWMCPPY (cysteine pairing not given here; also: Fc fusion peptibody)
- inhibition of myostatin activity in cell-based assay (myostatin [1]): inhibit myostatin activity
- IC50 of peptibody compared with peptide (FIG. 1) (myostatin [1]; C2C12 based assay): significantly less than that of the peptide
- pIC50 (myostatin [1]; pMARE luc cell-based assay, myostatin 4 nM): ~7.64
- pKd (myostatin [2]): ~8.70
- blocking of myostatin/ActRIIB/Fc interactions [3]: does not block
- epitope on myostatin (binning) (myostatin [4]): bind to different epitopes
